Conditions: Bos taurus; pH 7; 25 °C; Urea; CD; PIPES-KOH 20 mM; reversible: yes; whole UniProt chain shown

B1: Protein S100-G wild type, P02633 (protein)
chain: MSAKKSPEELKGIFEKYAAKEGDPNQLSKEELKLLLQTEFPSLLKGPSTLDELFEELDKNGDGEVSFEEFQVLVKKISQ
  denaturant midpoint (higher = more stable): 5.3 M
  unfolding free energy: 0.29 kcal/mol
